The source of these data is patent US20250361268A1, “NOVEL ANTI-INFLAMMATORY PEPTIDE AND USE THEREOF” (NOVACELL TECHNOLOGY INC., priority 2022, published 2025).

The target in test [1] is T1, formyl peptide receptor 2 (FPR2) (UniProt P25090 1-351, limits assumed).
T1 sequence (looked up): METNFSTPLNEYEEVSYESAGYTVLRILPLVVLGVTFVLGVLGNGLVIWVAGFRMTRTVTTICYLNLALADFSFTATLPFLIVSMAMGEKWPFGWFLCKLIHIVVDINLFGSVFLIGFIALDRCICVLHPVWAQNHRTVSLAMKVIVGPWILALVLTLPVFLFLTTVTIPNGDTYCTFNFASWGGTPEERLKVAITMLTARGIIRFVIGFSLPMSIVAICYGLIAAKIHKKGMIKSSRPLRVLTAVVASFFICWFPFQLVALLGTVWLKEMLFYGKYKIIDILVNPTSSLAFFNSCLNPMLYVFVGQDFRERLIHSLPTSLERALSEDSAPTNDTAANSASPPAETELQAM
Description: cell-based or functional assay.

The target in another test is T2, FPR1 (UniProt P21462 1-350, limits assumed).
T2 sequence (looked up): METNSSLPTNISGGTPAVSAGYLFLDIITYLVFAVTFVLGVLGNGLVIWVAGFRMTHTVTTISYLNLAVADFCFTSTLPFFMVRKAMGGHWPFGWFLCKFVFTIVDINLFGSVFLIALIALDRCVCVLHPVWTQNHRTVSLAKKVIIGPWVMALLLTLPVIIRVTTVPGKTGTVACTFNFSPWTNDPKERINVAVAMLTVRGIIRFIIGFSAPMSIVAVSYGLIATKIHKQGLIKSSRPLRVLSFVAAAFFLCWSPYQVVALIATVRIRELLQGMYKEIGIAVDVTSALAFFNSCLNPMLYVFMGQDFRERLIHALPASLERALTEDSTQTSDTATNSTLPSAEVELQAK
As to the kind of experiment: cell-based or functional assay.

B1: peptide of SEQ ID NO 140 (peptide)
peptide: PKYKVM
HELM: PEPTIDE1{[CCCC(=O)[*:2]].P.K.Y.K.V.[dM].[am]}$$$$V2.0
SMILES: CCCC(=O)N1CCC[C@H]1C(=O)N[C@@H](CCCCN)C(=O)N[C@@H](Cc1ccc(O)cc1)C(=O)N[C@@H](CCCCN)C(=O)N[C@H](C(=O)N[C@H](CCSC)C(N)=O)C(C)C
Turning to B1, the “EC50 for [Ca2+]” value was below 0.01 µM in test [1] and above 10 µM with FPR1.

B2: peptide of SEQ ID NO 125 (peptide)
peptide: RMRYYYM
HELM: PEPTIDE1{[ac].R.M.R.Y.Y.Y.[dM].[am]}$$$$V2.0
SMILES: CSCC[C@H](NC(=O)[C@H](CCCNC(=N)N)NC(C)=O)C(=O)N[C@@H](CCCNC(=N)N)C(=O)N[C@@H](Cc1ccc(O)cc1)C(=O)N[C@@H](Cc1ccc(O)cc1)C(=O)N[C@@H](Cc1ccc(O)cc1)C(=O)N[C@H](CCSC)C(N)=O
Regarding B2, the “EC50 for [Ca2+]” value in test [1] is below 0.01 µM; with FPR1 it was above 10 µM.

B3: peptide of SEQ ID NO 89 (peptide)
peptide: MKYWYM
HELM: PEPTIDE1{M.K.Y.W.Y.[dM].[am]}$$$$V2.0; N-terminus assumed
SMILES: CSCC[C@H](N)C(=O)N[C@@H](CCCCN)C(=O)N[C@@H](Cc1ccc(O)cc1)C(=O)N[C@@H](Cc1c[nH]c2ccccc12)C(=O)N[C@@H](Cc1ccc(O)cc1)C(=O)N[C@H](CCSC)C(N)=O
As for B3, the “EC50 for [Ca2+]” value in test [1] is below 0.01 µM; with FPR1, above 10 µM.

B4: peptide of SEQ ID NO 133 (peptide)
peptide: IKFKPM
HELM: PEPTIDE1{I.K.F.K.P.[dM].[am]}$$$$V2.0; N-terminus assumed
SMILES: CC[C@H](C)[C@H](N)C(=O)N[C@@H](CCCCN)C(=O)N[C@@H](Cc1ccccc1)C(=O)N[C@@H](CCCCN)C(=O)N1CCC[C@H]1C(=O)N[C@H](CCSC)C(N)=O
Turning to B4, the “EC50 for [Ca2+]” value in test [1] was below 0.01 µM; with FPR1 it was above 10 µM.

B5: peptide of SEQ ID NO 141 (peptide)
peptide: PKYKVM
HELM: PEPTIDE1{[CCCCCCCC(=O)[*:2]].P.K.Y.K.V.[dM].[am]}$$$$V2.0
SMILES: CCCCCCCC(=O)N1CCC[C@H]1C(=O)N[C@@H](CCCCN)C(=O)N[C@@H](Cc1ccc(O)cc1)C(=O)N[C@@H](CCCCN)C(=O)N[C@H](C(=O)N[C@H](CCSC)C(N)=O)C(C)C
As to B5, the “EC50 for [Ca2+]” value in test [1] was below 0.01 µM; with FPR1 it was above 10 µM.

B6: peptide of SEQ ID NO 135 (peptide)
peptide: IKYKVM
HELM: PEPTIDE1{[ac].I.K.Y.K.V.[dM].[am]}$$$$V2.0
SMILES: CC[C@H](C)[C@H](NC(C)=O)C(=O)N[C@@H](CCCCN)C(=O)N[C@@H](Cc1ccc(O)cc1)C(=O)N[C@@H](CCCCN)C(=O)N[C@H](C(=O)N[C@H](CCSC)C(N)=O)C(C)C
For the molecule B6, the “EC50 for [Ca2+]” value in test [1] was below 0.01 µM; with FPR1 it was above 10 µM.

B7: peptide of SEQ ID NO 123 (peptide)
peptide: RWRYYYM
HELM: PEPTIDE1{R.W.R.Y.Y.Y.[dM].[am]}$$$$V2.0; N-terminus assumed
SMILES: CSCC[C@@H](NC(=O)[C@H](Cc1ccc(O)cc1)NC(=O)[C@H](Cc1ccc(O)cc1)NC(=O)[C@H](Cc1ccc(O)cc1)NC(=O)[C@H](CCCNC(=N)N)NC(=O)[C@H](Cc1c[nH]c2ccccc12)NC(=O)[C@@H](N)CCCNC(=N)N)C(N)=O
On to B7, for which the “EC50 for [Ca2+]” value is below 0.01 µM in test [1] and above 10 µM with FPR1.

B8: peptide of SEQ ID NO 127 (peptide)
peptide: HMKYYYM
HELM: PEPTIDE1{[CCCC(=O)[*:2]].H.M.K.Y.Y.Y.[dM].[am]}$$$$V2.0
SMILES: CCCC(=O)N[C@@H](Cc1c[nH]cn1)C(=O)N[C@@H](CCSC)C(=O)N[C@@H](CCCCN)C(=O)N[C@@H](Cc1ccc(O)cc1)C(=O)N[C@@H](Cc1ccc(O)cc1)C(=O)N[C@@H](Cc1ccc(O)cc1)C(=O)N[C@H](CCSC)C(N)=O
Take B8: the “EC50 for [Ca2+]” value in test [1] is below 0.01 µM; with FPR1, above 10 µM.

B9: peptide of SEQ ID NO 136 (peptide)
peptide: IKYKVM
HELM: PEPTIDE1{[CCCC(=O)[*:2]].I.K.Y.K.V.[dM].[am]}$$$$V2.0
SMILES: CCCC(=O)N[C@H](C(=O)N[C@@H](CCCCN)C(=O)N[C@@H](Cc1ccc(O)cc1)C(=O)N[C@@H](CCCCN)C(=O)N[C@H](C(=O)N[C@H](CCSC)C(N)=O)C(C)C)[C@@H](C)CC
Consider B9, for which the “EC50 for [Ca2+]” value in test [1] was below 0.01 µM; with FPR1, above 10 µM.

B10: peptide of SEQ ID NO 138 (peptide)
peptide: PKYKVM
HELM: PEPTIDE1{P.K.Y.K.V.[dM].[am]}$$$$V2.0; N-terminus assumed
SMILES: CSCC[C@@H](NC(=O)[C@@H](NC(=O)[C@H](CCCCN)NC(=O)[C@H](Cc1ccc(O)cc1)NC(=O)[C@H](CCCCN)NC(=O)[C@@H]1CCCN1)C(C)C)C(N)=O
Take B10: the “EC50 for [Ca2+]” value in test [1] was below 0.01 µM; with FPR1, above 10 µM.

B11: peptide of SEQ ID NO 85 (peptide)
peptide: MRYWYM
HELM: PEPTIDE1{M.R.Y.W.Y.[dM].[am]}$$$$V2.0; N-terminus assumed
SMILES: CSCC[C@H](N)C(=O)N[C@@H](CCCNC(=N)N)C(=O)N[C@@H](Cc1ccc(O)cc1)C(=O)N[C@@H](Cc1c[nH]c2ccccc12)C(=O)N[C@@H](Cc1ccc(O)cc1)C(=O)N[C@H](CCSC)C(N)=O
As for B11, the “EC50 for [Ca2+]” value in test [1] is below 0.01 µM; with FPR1 it was above 10 µM.

B12: peptide of SEQ ID NO 139 (peptide)
peptide: PKYKVM
HELM: PEPTIDE1{[ac].P.K.Y.K.V.[dM].[am]}$$$$V2.0
SMILES: CSCC[C@@H](NC(=O)[C@@H](NC(=O)[C@H](CCCCN)NC(=O)[C@H](Cc1ccc(O)cc1)NC(=O)[C@H](CCCCN)NC(=O)[C@@H]1CCCN1C(C)=O)C(C)C)C(N)=O
For the molecule B12, the entries for the “EC50 for [Ca2+]” value (in test [1]; with FPR1) were below 0.01 µM and above 10 µM, respectively.

B13: peptide of SEQ ID NO 87 (peptide)
peptide: MRYWYM
HELM: PEPTIDE1{[CCCC(=O)[*:2]].M.R.Y.W.Y.[dM].[am]}$$$$V2.0
SMILES: CCCC(=O)N[C@@H](CCSC)C(=O)N[C@@H](CCCNC(=N)N)C(=O)N[C@@H](Cc1ccc(O)cc1)C(=O)N[C@@H](Cc1c[nH]c2ccccc12)C(=O)N[C@@H](Cc1ccc(O)cc1)C(=O)N[C@H](CCSC)C(N)=O
Consider B13, for which the “EC50 for [Ca2+]” value was below 0.01 µM in test [1] and above 10 µM with FPR1.

B14: peptide of SEQ ID NO 92 (peptide)
peptide: HMRYWYM
HELM: PEPTIDE1{[ac].H.M.R.Y.W.Y.[dM].[am]}$$$$V2.0
SMILES: CSCC[C@H](NC(=O)[C@H](Cc1c[nH]cn1)NC(C)=O)C(=O)N[C@@H](CCCNC(=N)N)C(=O)N[C@@H](Cc1ccc(O)cc1)C(=O)N[C@@H](Cc1c[nH]c2ccccc12)C(=O)N[C@@H](Cc1ccc(O)cc1)C(=O)N[C@H](CCSC)C(N)=O
With B14, the “EC50 for [Ca2+]” value in test [1] was below 0.01 µM; with FPR1, above 10 µM.

B15: peptide of SEQ ID NO 134 (peptide)
peptide: IKYKVM
HELM: PEPTIDE1{I.K.Y.K.V.[dM].[am]}$$$$V2.0; N-terminus assumed
SMILES: CC[C@H](C)[C@H](N)C(=O)N[C@@H](CCCCN)C(=O)N[C@@H](Cc1ccc(O)cc1)C(=O)N[C@@H](CCCCN)C(=O)N[C@H](C(=O)N[C@H](CCSC)C(N)=O)C(C)C
On to B15, for which the entries for the “EC50 for [Ca2+]” value (in test [1]; in the test with FPR1) were below 0.01 µM and above 10 µM, respectively.

B16: peptide of SEQ ID NO 11 (peptide)
peptide: KMKYKVM
HELM: PEPTIDE1{[CCCC(=O)[*:2]].K.M.K.Y.K.V.[dM].[am]}$$$$V2.0
SMILES: CCCC(=O)N[C@@H](CCCCN)C(=O)N[C@@H](CCSC)C(=O)N[C@@H](CCCCN)C(=O)N[C@@H](Cc1ccc(O)cc1)C(=O)N[C@@H](CCCCN)C(=O)N[C@H](C(=O)N[C@H](CCSC)C(N)=O)C(C)C
B16: the “EC50 for [Ca2+]” value in test [1] was below 0.01 µM; with FPR1, above 10 µM.

B17: peptide of SEQ ID NO 13 (peptide)
peptide: MRYKVM
HELM: PEPTIDE1{M.R.Y.K.V.[dM].[am]}$$$$V2.0; N-terminus assumed
SMILES: CSCC[C@H](N)C(=O)N[C@@H](CCCNC(=N)N)C(=O)N[C@@H](Cc1ccc(O)cc1)C(=O)N[C@@H](CCCCN)C(=O)N[C@H](C(=O)N[C@H](CCSC)C(N)=O)C(C)C
Consider B17, for which the “EC50 for [Ca2+]” value in test [1] was below 0.01 µM; with FPR1, above 10 µM.

B18: peptide of SEQ ID NO 86 (peptide)
peptide: MRYWYM
HELM: PEPTIDE1{[ac].M.R.Y.W.Y.[dM].[am]}$$$$V2.0
SMILES: CSCC[C@H](NC(C)=O)C(=O)N[C@@H](CCCNC(=N)N)C(=O)N[C@@H](Cc1ccc(O)cc1)C(=O)N[C@@H](Cc1c[nH]c2ccccc12)C(=O)N[C@@H](Cc1ccc(O)cc1)C(=O)N[C@H](CCSC)C(N)=O
Take B18: the “EC50 for [Ca2+]” value in test [1] is below 0.01 µM; with FPR1 it was above 10 µM.
